Reference: article PMC2783235

Tests used:
[1] = target: A281C (single-Cys mutant of FT-HT-Xa) (S. cerevisiae) (UniProt D6VTK4); assay: cross-linking
[2] = target: A281C (single-Cys mutant of FT-HT-Xa) (S. cerevisiae) (UniProt D6VTK4); assay: SDS-PAGE and western blot of membranes
[3] = target: A281C (single-Cys mutant of FT-HT-Xa) (S. cerevisiae) (UniProt D6VTK4); assay: cross-linking; remark: listed apart in the source
[4] = target: A281C (single-Cys mutant of FT-HT-Xa) (S. cerevisiae) (UniProt D6VTK4); assay: cross-linking; remark: listed apart in the source
[5] = target: A285C (single-Cys mutant of FT-HT-Xa) (S. cerevisiae) (UniProt D6VTK4); assay: cross-linking
[6] = target: A285C (single-Cys mutant of FT-HT-Xa) (S. cerevisiae) (UniProt D6VTK4); assay: SDS-PAGE and western blot of membranes
[7] = target: A285C (single-Cys mutant of FT-HT-Xa) (S. cerevisiae) (UniProt D6VTK4); assay: cross-linking; remark: listed apart in the source
[8] = target: A285C (single-Cys mutant of FT-HT-Xa) (S. cerevisiae) (UniProt D6VTK4); assay: cross-linking; remark: listed apart in the source
[9] = target: L283C (single-Cys mutant of FT-HT-Xa) (S. cerevisiae) (UniProt D6VTK4); assay: cross-linking
[10] = target: L283C (single-Cys mutant of FT-HT-Xa) (S. cerevisiae) (UniProt D6VTK4); assay: SDS-PAGE and western blot of membranes
[11] = target: L283C (single-Cys mutant of FT-HT-Xa) (S. cerevisiae) (UniProt D6VTK4); assay: cross-linking; remark: listed apart in the source
[12] = target: L283C (single-Cys mutant of FT-HT-Xa) (S. cerevisiae) (UniProt D6VTK4); assay: cross-linking; remark: listed apart in the source
[13] = target: L284C (single-Cys mutant of FT-HT-Xa) (S. cerevisiae) (UniProt D6VTK4); assay: cross-linking
[14] = target: L284C (single-Cys mutant of FT-HT-Xa) (S. cerevisiae) (UniProt D6VTK4); assay: SDS-PAGE and western blot of membranes
[15] = target: L284C (single-Cys mutant of FT-HT-Xa) (S. cerevisiae) (UniProt D6VTK4); assay: cross-linking; remark: listed apart in the source
[16] = target: L284C (single-Cys mutant of FT-HT-Xa) (S. cerevisiae) (UniProt D6VTK4); assay: cross-linking; remark: listed apart in the source
[17] = target: L287C (single-Cys mutant of FT-HT-Xa) (S. cerevisiae) (UniProt D6VTK4); assay: cross-linking
[18] = target: L287C (single-Cys mutant of FT-HT-Xa) (S. cerevisiae) (UniProt D6VTK4); assay: SDS-PAGE and western blot of membranes
[19] = target: L287C (single-Cys mutant of FT-HT-Xa) (S. cerevisiae) (UniProt D6VTK4); assay: cross-linking; remark: listed apart in the source
[20] = target: L287C (single-Cys mutant of FT-HT-Xa) (S. cerevisiae) (UniProt D6VTK4); assay: cross-linking; remark: listed apart in the source
[21] = target: L289C (single-Cys mutant of FT-HT-Xa) (S. cerevisiae) (UniProt D6VTK4); assay: cross-linking
[22] = target: L289C (single-Cys mutant of FT-HT-Xa) (S. cerevisiae) (UniProt D6VTK4); assay: SDS-PAGE and western blot of membranes
[23] = target: L289C (single-Cys mutant of FT-HT-Xa) (S. cerevisiae) (UniProt D6VTK4); assay: cross-linking; remark: listed apart in the source
[24] = target: L289C (single-Cys mutant of FT-HT-Xa) (S. cerevisiae) (UniProt D6VTK4); assay: cross-linking; remark: listed apart in the source
[25] = target: S288C (single-Cys mutant of FT-HT-Xa) (S. cerevisiae) (UniProt D6VTK4); assay: cross-linking
[26] = target: S288C (single-Cys mutant of FT-HT-Xa) (S. cerevisiae) (UniProt D6VTK4); assay: SDS-PAGE and western blot of membranes
[27] = target: S288C (single-Cys mutant of FT-HT-Xa) (S. cerevisiae) (UniProt D6VTK4); assay: cross-linking; remark: listed apart in the source
[28] = target: S288C (single-Cys mutant of FT-HT-Xa) (S. cerevisiae) (UniProt D6VTK4); assay: cross-linking; remark: listed apart in the source
[29] = target: T282C (single-Cys mutant of FT-HT-Xa) (S. cerevisiae) (UniProt D6VTK4); assay: cross-linking
[30] = target: T282C (single-Cys mutant of FT-HT-Xa) (S. cerevisiae) (UniProt D6VTK4); assay: SDS-PAGE and western blot of membranes
[31] = target: T282C (single-Cys mutant of FT-HT-Xa) (S. cerevisiae) (UniProt D6VTK4); assay: cross-linking; remark: listed apart in the source
[32] = target: T282C (single-Cys mutant of FT-HT-Xa) (S. cerevisiae) (UniProt D6VTK4); assay: cross-linking; remark: listed apart in the source
[33] = target: V280C (single-Cys mutant of FT-HT-Xa) (S. cerevisiae) (UniProt D6VTK4); assay: cross-linking
[34] = target: V280C (single-Cys mutant of FT-HT-Xa) (S. cerevisiae) (UniProt D6VTK4); assay: SDS-PAGE and western blot of membranes
[35] = target: V280C (single-Cys mutant of FT-HT-Xa) (S. cerevisiae) (UniProt D6VTK4); assay: cross-linking; remark: listed apart in the source
[36] = target: V280C (single-Cys mutant of FT-HT-Xa) (S. cerevisiae) (UniProt D6VTK4); assay: cross-linking; remark: listed apart in the source
[37] = target: V286C (single-Cys mutant of FT-HT-Xa) (S. cerevisiae) (UniProt D6VTK4); assay: cross-linking
[38] = target: V286C (single-Cys mutant of FT-HT-Xa) (S. cerevisiae) (UniProt D6VTK4); assay: SDS-PAGE and western blot of membranes
[39] = target: V286C (single-Cys mutant of FT-HT-Xa) (S. cerevisiae) (UniProt D6VTK4); assay: cross-linking; remark: listed apart in the source
[40] = target: V286C (single-Cys mutant of FT-HT-Xa) (S. cerevisiae) (UniProt D6VTK4); assay: cross-linking; remark: listed apart in the source

## A281C (single-Cys mutant of FT-HT-Xa) (from UniProt D6VTK4 1-431) (receptor)
[1]
  percent dimer: 11.9%
[2]
  percent dimer: 16.8%
[3]
  percent dimer: 11.3%
[4]
  percent dimer: 14.3%

## A285C (single-Cys mutant of FT-HT-Xa) (from UniProt D6VTK4 1-431) (receptor)
[5]
  percent dimer: 53.5%
[6]
  percent dimer: 16.5%
[7]
  percent dimer: 17.7%
[8]
  percent dimer: 16.5%

## L283C (single-Cys mutant of FT-HT-Xa) (from UniProt D6VTK4 1-431) (receptor)
[9]
  percent dimer: 15.7%
[10]
  percent dimer: 16.6%
[11]
  percent dimer: 10.7%
[12]
  percent dimer: 13.3%

## L284C (single-Cys mutant of FT-HT-Xa) (from UniProt D6VTK4 1-431) (receptor)
[13]
  percent dimer: 12%
[14]
  percent dimer: 15.2%
[15]
  percent dimer: 15.3%
[16]
  percent dimer: 17.7%

## L287C (single-Cys mutant of FT-HT-Xa) (from UniProt D6VTK4 1-431) (receptor)
[17]
  percent dimer: 14.3%
[18]
  percent dimer: 16%
[19]
  percent dimer: 16%
[20]
  percent dimer: 11.3%

## L289C (single-Cys mutant of FT-HT-Xa) (from UniProt D6VTK4 1-431) (receptor)
[21]
  percent dimer: 61%
[22]
  percent dimer: 26.8%
[23]
  percent dimer: 40.9%
[24]
  percent dimer: 50.2%

## S288C (single-Cys mutant of FT-HT-Xa) (from UniProt D6VTK4 1-431) (receptor)
[25]
  percent dimer: 14.7%
[26]
  percent dimer: 14.7%
[27]
  percent dimer: 12.6%
[28]
  percent dimer: 11.5%

## T282C (single-Cys mutant of FT-HT-Xa) (from UniProt D6VTK4 1-431) (receptor)
[29]
  percent dimer: 15.4%
[30]
  percent dimer: 11.7%
[31]
  percent dimer: 11.7%
[32]
  percent dimer: 12%

## V280C (single-Cys mutant of FT-HT-Xa) (from UniProt D6VTK4 1-431) (receptor)
[33]
  percent dimer: 14.7%
[34]
  percent dimer: 15.3%
[35]
  percent dimer: 12.4%
[36]
  percent dimer: 16.3%

## V286C (single-Cys mutant of FT-HT-Xa) (from UniProt D6VTK4 1-431) (receptor)
[37]
  percent dimer: 17%
[38]
  percent dimer: 15.6%
[39]
  percent dimer: 15.9%
[40]
  percent dimer: 13.2%
